PMC10907715, “Soluble Frizzled-related proteins promote exosome-mediated Wnt re-secretion” (Communications Biology, 2024)

How the values were obtained:
FLAG-mClover-mouse Wnt5a = target: T1, FLAG-mClover-mouse Wnt5a (mouse, UniProt P22725 62-380); assay: AUC; AUC-FDS (fluorescence detection) of the culture supernatant of fluorescent Wnt-expressing cells co-cultured with sFRP-expressing or parental HEK293 cells; FluoroBrite DMEM with 8% FBS, no detergent; 20 °C, 42,000 rpm; c(s) model of SEDFIT; details: partners not purified
T1 construct: Wnt5a, mouse; secreted into the culture supernatant; Ends of the tags are read from the order of the printed name; also called mClover-Wnt5a; mClover-tagged Wnt5a; source: HEK293 cells stably expressing it (CMV promoter), secreted into the culture supernatant (not purified); not shown: mClover, N-terminal, kept
T1 sequence (looked up): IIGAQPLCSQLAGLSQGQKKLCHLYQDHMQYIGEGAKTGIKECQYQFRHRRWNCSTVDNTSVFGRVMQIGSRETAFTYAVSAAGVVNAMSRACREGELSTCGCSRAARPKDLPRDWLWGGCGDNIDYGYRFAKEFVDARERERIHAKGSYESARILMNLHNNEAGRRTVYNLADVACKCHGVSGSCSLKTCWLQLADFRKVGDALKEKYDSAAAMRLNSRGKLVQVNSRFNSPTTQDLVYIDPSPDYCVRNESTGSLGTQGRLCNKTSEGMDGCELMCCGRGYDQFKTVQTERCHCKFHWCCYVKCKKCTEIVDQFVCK

[1] = target: T2, FLAG-GFP-tagged mouse Wnt3a (mouse, UniProt P27467 19-352); assay: as above; details: partners not purified
T2 construct: Wnt3a, mouse; secreted into the culture supernatant; Ends of the tags are read from the order of the printed name; also called GFP-Wnt3a; FLAG-GFP-Wnt3a; source: L cells stably expressing it, secreted into the culture supernatant (not purified); not shown: GFP, N-terminal, kept
T2 sequence (P27467 19-352): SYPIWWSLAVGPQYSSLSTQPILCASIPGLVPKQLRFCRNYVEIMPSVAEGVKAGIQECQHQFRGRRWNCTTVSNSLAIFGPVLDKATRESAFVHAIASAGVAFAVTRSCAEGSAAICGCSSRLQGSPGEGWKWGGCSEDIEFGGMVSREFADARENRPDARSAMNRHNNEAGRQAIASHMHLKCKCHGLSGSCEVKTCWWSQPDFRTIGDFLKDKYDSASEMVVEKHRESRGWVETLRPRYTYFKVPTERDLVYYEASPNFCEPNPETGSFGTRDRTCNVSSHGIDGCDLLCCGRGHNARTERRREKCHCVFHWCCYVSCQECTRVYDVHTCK

B1: mouse sFRP2-FLAG (natural protein, UniProt P97299 25-295, looked up)
chain: LFLFGQPDFSYKRSNCKPIPANLQLCHGIEYQNMRLPNLLGHETMKEVLEQAGAWIPLVMKQCHPDTKKFLCSLFAPVCLDDLDETIQPCHSLCVQVKDRCAPVMSAFGFPWPDMLECDRFPQDNDLCIPLASSDHLLPATEEAPKVCEACKTKNEDDNDIMETLCKNDFALKIKVKEITYINRDTKIILETKSKTIYKLNGVSERDLKKSVLWLKDSLQCTCEEMNDINAPYLVMGQKQGGELVITSVKRWQKGQREFKRISRSIRKLQC
notes: sFRP2 (secreted Frizzled-related protein 2), mouse; secreted into the culture supernatant; End of the tag is read from the order of the printed name; also called secreted Frizzled-related protein 2; source: HEK293 cells stably expressing it, secreted into the culture supernatant (not purified)
stoichiometry N (FLAG-mClover-mouse Wnt5a): 1
stoichiometry N [1]: 1
